From patent US20230220589A1
Values belong to the binder of their own block, whether it stands above or below them.

How the values were obtained:
[1] = target: M44-modified V NTAA target peptides; assay: encoding assay; P2 V;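 note: fraction of recording tags encoded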
[2] = target: M44-modified G NTAA target peptides (M44-G-P2-peptide); assay: encoding assay; P2 V;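 note: fraction of recording tags encoded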
[3] = target: M44-modified E NTAA target peptides; assay: encoding assay; P2 V;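 note: fraction of recording tags encoded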
[4] = target: M44-modified H NTAA target peptides; assay: encoding assay; P2 M;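 note: fraction of recording tags encoded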
[5] = target: M44-modified D NTAA target peptides; assay: encoding assay; P2 M;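 note: fraction of recording tags encoded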
[6] = target: M44-modified W NTAA target peptides; assay: encoding assay; P2 M;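 note: fraction of recording tags encoded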
[7] = target: M44-modified A NTAA target peptides (M44-A-P2-peptide); assay: encoding assay; P2 M;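 note: fraction of recording tags encoded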
[8] = target: M44-modified A NTAA target peptides (M44-A-P2-peptide); assay: Gini coefficient of P2 tolerance from multiplex encoding heatmap
[9] = target: M44-modified A NTAA target peptides (M44-A-P2-peptide); assay: Gini coefficient of P1 selectivity from multiplex encoding heatmap
[10] = target: M17-modified H NTAA target peptides; assay: encoding assay; P2 V;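 note: fraction of recording tags encoded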
[11] = target: M17-modified M NTAA target peptides; assay: encoding assay; P2 V;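 note: fraction of recording tags encoded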
[12] = target: M17-modified Q NTAA target peptides; assay: encoding assay; P2 V;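 note: fraction of recording tags encoded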
[13] = target: M17-modified A NTAA target peptides; assay: encoding assay; P2 V;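 note: fraction of recording tags encoded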
[14] = target: M17-modified E NTAA target peptides; assay: encoding assay; P2 V;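 note: fraction of recording tags encoded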
[15] = target: M17-modified F NTAA target peptides; assay: encoding assay; P2 V;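 note: fraction of recording tags encoded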
[16] = target: M17-modified D NTAA target peptides; assay: encoding assay; P2 V;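 note: fraction of recording tags encoded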
[17] = target: M17-modified N NTAA target peptides; assay: encoding assay; P2 V;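 note: fraction of recording tags encoded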
[18] = target: M17-modified S NTAA target peptides; assay: encoding assay; P2 V;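 note: fraction of recording tags encoded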
[19] = target: M17-modified Y NTAA target peptides (M17-Y-P2-peptide); assay: encoding assay; P2 V;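 note: fraction of recording tags encoded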
[20] = target: M17-modified I NTAA target peptides; assay: encoding assay; P2 V;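 note: fraction of recording tags encoded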
[21] = target: M17-modified L NTAA target peptides; assay: encoding assay; P2 V;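 note: fraction of recording tags encoded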
[22] = target: M17-modified P NTAA target peptides; assay: encoding assay; P2 V;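 note: fraction of recording tags encoded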
[23] = target: M17-modified V NTAA target peptides; assay: encoding assay; P2 V;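 note: fraction of recording tags encoded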
[24] = target: M17-modified T NTAA target peptides; assay: encoding assay; P2 V;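 note: fraction of recording tags encoded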
[25] = target: M17-modified W NTAA target peptides; assay: encoding assay; P2 V;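 note: fraction of recording tags encoded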
[26] = target: M17-modified G NTAA target peptides; assay: encoding assay; P2 V;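 note: fraction of recording tags encoded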
[27] = target: M17-modified H NTAA target peptides; assay: encoding assay; P2 M;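 note: fraction of recording tags encoded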
[28] = target: M17-modified Q NTAA target peptides; assay: encoding assay; P2 M;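 note: fraction of recording tags encoded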
[29] = target: M17-modified A NTAA target peptides; assay: encoding assay; P2 M;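 note: fraction of recording tags encoded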
[30] = target: M17-modified F NTAA target peptides; assay: encoding assay; P2 M;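 note: fraction of recording tags encoded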
[31] = target: M17-modified D NTAA target peptides; assay: encoding assay; P2 M;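 note: fraction of recording tags encoded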
[32] = target: M17-modified V NTAA target peptides; assay: encoding assay; P2 M;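 note: fraction of recording tags encoded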
[33] = target: M17-modified T NTAA target peptides; assay: encoding assay; P2 M;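 note: fraction of recording tags encoded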
[34] = target: M17-modified W NTAA target peptides; assay: encoding assay; P2 M;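 note: fraction of recording tags encoded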
[35] = target: M17-modified H NTAA target peptides; assay: encoding assay; P2 F;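 note: fraction of recording tags encoded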
[36] = target: M17-modified M NTAA target peptides; assay: encoding assay; P2 F;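 note: fraction of recording tags encoded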
[37] = target: M17-modified Q NTAA target peptides; assay: encoding assay; P2 F;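 note: fraction of recording tags encoded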
[38] = target: M17-modified A NTAA target peptides; assay: encoding assay; P2 F;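 note: fraction of recording tags encoded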
[39] = target: M17-modified E NTAA target peptides; assay: encoding assay; P2 F;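 note: fraction of recording tags encoded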
[40] = target: M17-modified F NTAA target peptides; assay: encoding assay; P2 F;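 note: fraction of recording tags encoded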
[41] = target: M17-modified D NTAA target peptides; assay: encoding assay; P2 F;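 note: fraction of recording tags encoded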
[42] = target: M17-modified N NTAA target peptides; assay: encoding assay; P2 F;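 note: fraction of recording tags encoded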
[43] = target: M17-modified S NTAA target peptides; assay: encoding assay; P2 F;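 note: fraction of recording tags encoded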
[44] = target: M17-modified Y NTAA target peptides (M17-Y-P2-peptide); assay: encoding assay; P2 F;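 note: fraction of recording tags encoded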
[45] = target: M17-modified I NTAA target peptides; assay: encoding assay; P2 F;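 note: fraction of recording tags encoded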
[46] = target: M17-modified L NTAA target peptides; assay: encoding assay; P2 F;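 note: fraction of recording tags encoded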
[47] = target: M17-modified P NTAA target peptides; assay: encoding assay; P2 F;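 note: fraction of recording tags encoded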
[48] = target: M17-modified V NTAA target peptides; assay: encoding assay; P2 F;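 note: fraction of recording tags encoded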
[49] = target: M17-modified T NTAA target peptides; assay: encoding assay; P2 F;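 note: fraction of recording tags encoded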
[50] = target: M17-modified W NTAA target peptides; assay: encoding assay; P2 F;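 note: fraction of recording tags encoded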
[51] = target: M17-modified G NTAA target peptides; assay: encoding assay; P2 F;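 note: fraction of recording tags encoded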
[52] = target: M17-modified W NTAA target peptides; assay: encoding assay; P2 S;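 note: fraction of recording tags encoded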
[53] = target: M17-modified W NTAA target peptides; assay: encoding assay; P2 G;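 note: fraction of recording tags encoded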
[54] = target: M17-modified M NTAA target peptides; assay: encoding assay; P2 Q;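 note: fraction of recording tags encoded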

B2: engineered M44-L binder (SEQ ID NO: 31) (designed binder, not shown: small tags and cut ends; large carriers)
chain: QDSTQNLIPAPPLISVPLQPGFWTERFQGRWFLVGFAGNAVQKERQSRLTMQSLILELQEDNSYNITAINVRGQGCRYIISTLVPSSRPGQFTLGNIHSYPQIQSLDVQVADTDYDQFAMVFLQGTSENKQYFEVALAGRTKGLSDELKERFVSFAKSLGLKDNNIVFSVPTDQCIDN
encoding yield [2]: 0.01
encoding yield [3]: 0.01
encoding yield [4]: 0.01
encoding yield [5]: 0.01
encoding yield [6]: 0.03
encoding yield [7]: 0.02

B4: engineered M17-Y binder (SEQ ID NO: 61) (designed binder, not shown: small tags and cut ends; large carriers)
chain: TVPDRSEIAGKWYVVALASNTEFYLREKDWVKSAMARISFLGEDELKVSSAVPSPNGCYKVERTWKKTSDDGEVYNSRAAKLKVEVLDTDYKSYAVIYATRVKDGRTDHQMILYSRSPEVSPAATAIFRKLAGERNYTDEMVAMLPRQEECTVDEV
encoding yield [10]: 0.04
encoding yield [11]: 0.02
encoding yield [12]: 0.02
encoding yield [13]: 0.02
encoding yield [14]: 0.01
encoding yield [15]: 0.13
encoding yield [16]: 0.03
encoding yield [17]: 0.02
encoding yield [18]: 0.02
encoding yield [19]: 0.22
encoding yield [20]: 0.05
encoding yield [21]: 0.02
encoding yield [22]: 0.02
encoding yield [23]: 0.01
encoding yield [24]: 0.03
encoding yield [25]: 0.04
encoding yield [26]: 0.01
encoding yield [27]: 0.01
encoding yield [28]: 0.01
encoding yield [29]: 0.01
encoding yield [30]: 0.03
encoding yield [31]: 0.02
encoding yield [32]: 0.03
encoding yield [33]: 0.04
encoding yield [34]: 0.01
encoding yield [35]: 0.03
encoding yield [36]: 0.03
encoding yield [37]: 0.02
encoding yield [38]: 0.02
encoding yield [39]: 0.04
encoding yield [40]: 0.07
encoding yield [41]: 0.02
encoding yield [42]: 0.02
encoding yield [43]: 0.02
encoding yield [44]: 0.2
encoding yield [45]: 0.06
encoding yield [46]: 0.04
encoding yield [47]: 0.01
encoding yield [48]: 0.02
encoding yield [49]: 0.02
encoding yield [50]: 0.05
encoding yield [51]: 0.03

B5: upgraded binder after additional maturation round (SEQ ID NO: 62) (designed binder, not shown: small tags and cut ends; large carriers)
chain: TVPDRSEIAGKWYVVALASNTEFYLRGKDRVKSAMVRISFQGEDELKVSSAVPSPNGCYKVERTWKKTSDDGEVYNSRAAKLKVEVLDTDYKSYAVIYATRVKDRRTDHQMILYSRSPDVSPAATAIFRKLAGERNYTDEMVAMLPRQEECTVDEV
encoding yield [52]: 0.03
encoding yield [10]: 0.04
encoding yield [11]: 0.03
encoding yield [12]: 0.02
encoding yield [13]: 0.03
encoding yield [14]: 0.02
encoding yield [15]: 0.17
encoding yield [16]: 0.03
encoding yield [17]: 0.03
encoding yield [18]: 0.03
encoding yield [19]: 0.32
encoding yield [20]: 0.07
encoding yield [21]: 0.03
encoding yield [22]: 0.03
encoding yield [23]: 0.01
encoding yield [24]: 0.04
encoding yield [25]: 0.08
encoding yield [26]: 0.02
encoding yield [27]: 0.01
encoding yield [28]: 0.01
encoding yield [29]: 0.02
encoding yield [30]: 0.06
encoding yield [31]: 0.02
encoding yield [32]: 0.03
encoding yield [33]: 0.05
encoding yield [34]: 0.03
encoding yield [53]: 0.04
encoding yield [54]: 0.01
encoding yield [35]: 0.04
encoding yield [36]: 0.05
encoding yield [37]: 0.03
encoding yield [38]: 0.04
encoding yield [39]: 0.04
encoding yield [40]: 0.1
encoding yield [41]: 0.02
encoding yield [42]: 0.03
encoding yield [43]: 0.02
encoding yield [44]: 0.28
encoding yield [45]: 0.06
encoding yield [46]: 0.05
encoding yield [47]: 0.02
encoding yield [48]: 0.02
encoding yield [49]: 0.03
encoding yield [50]: 0.11
encoding yield [51]: 0.04

Now from value to binder, other results behind:

encoding yield [1]: 0.01
encoding yield [2]: 0.01
encoding yield [3]: 0.03
encoding yield [4]: 0.01
encoding yield [5]: 0.02
encoding yield [6]: 0.01
encoding yield [7]: 0.1
P1 score [9]: 0.31
B1: engineered M44-A binder (SEQ ID NO: 42) (designed binder, not shown: small tags and cut ends; large carriers)
chain: QVSVQPNFQQDKFLGRWFVAGLASNSSWDREKVAALSGAKMVVAPATDGGLNVTRTMLRKNQCETYTGLLQPAGSLGSYSWRSPHPGSTGSESVVETDYDQYALVYGQGSKGPGEDLRAAALWSRTQTPRAELKEKFTAFSKAQGFTEDTIVFLPQTDKCMTEQ
P2 score [8]: 0.376

encoding yield [1]: 0.01
B3: engineered M44-L binder (SEQ ID NO: 21) (designed binder, not shown: small tags and cut ends; large carriers)
chain: QVSVQPNFQQDKFLGRWFYAGHASNSSWYREKVAALSMAKLVVAPATDGGLNATETFLRKNQCETITSLLQPAGSLGSYSSRSPHGGSTWSTSVVETDYDQYALLYLQGSKGPGEDFRGAILASRTQTPRAELKEKFTAFSKAQGFTEDTIVFLPQTDKCMTEQ
